The labels stand for the following.
B1: Spo0B (enzyme, B. subtilis, UniProt P06535 1-192, looked up)
chain: MKDVSKNQEENISDTALTNELIHLLGHSRHDWMNKLQLIKGNLSLQKYDRVFEMIEEMVIDAKHESKLSNLKTPHLAFDFLTFNWKTHYMTLEYEVLGEIKDLSAYDQKLAKLMRKLFHLFDQAVSRESENHLTVSLQTDHPDRQLILYLDFHGAFADPSAFDDIRQNGYEDVDIMRFEITSHECLIEIGLD
notes: Spo0B, sporulation phosphotransferase of B. subtilis; Two protomers of Spo0B stand in the complex; the Spo0B dimer of PDB 1IXM was the search probe; also called phosphotransferase Spo0B; transferase; source: E. coli BL21 (DE3) pLysS, purified (HisTrap IMAC, TEV cleavage, reverse IMAC, Superdex 75 SEC); not shown: His6, N-terminal, cleaved
B2: Spo0A-REC (domain or fragment, B. subtilis, UniProt P06534 1-123, looked up)
chain: MEKIKVCVADDNRELVSLLSEYIEGQEDMEVIGVAYNGQECLSLFKEKDPDVLVLDIIMPHLDGLAVLERLRESDLKKQPNVIMLTAFGQEDVTKKAVDLGASYFILKPFDMENLVGHIRQVS
notes: PDB 1QMP (Spo0A receiver domain) was the search probe; also called Spo0A receiver domain; A3; source: E. coli BL21 (DE3) pLysS, purified (HisTrap IMAC, TEV cleavage, reverse IMAC, Superdex 75 SEC); not shown: His6, N-terminal, cleaved

Data set [1] concerns the molecule itself. Kind of data set: crystal structure; purified Spo0B and Spo0A-REC mixed at 1:1.1 equivalents with 10 mM MgCl2 in 20 mM Tris-HCl pH 8.0, 0.1 M NaCl; sitting-drop vapour diffusion at 293 K; two crystal forms, 2.1 and 3.5 Å.
In data set [2] the target is B1. Described as above. As to conditions: both partners purified.

In the case of B1, the binding result in data set [1] is “binds”.
In the case of B2, the “stoichiometry N” value in data set [2] was 1 RR per phosphotransferase chain (printed as 2:2).
